In PMC314469, “Protein Interaction Networks by Proteome Peptide Scanning” (PLoS Biology, 2004):

T1: Yhr016c SH3 (YSC84_YEAST), P32793
T1 chain: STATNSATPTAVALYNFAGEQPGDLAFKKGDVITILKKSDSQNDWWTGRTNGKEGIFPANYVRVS

T2: Yfr024 SH3 (LSB3_YEAST), P43603
T2 chain: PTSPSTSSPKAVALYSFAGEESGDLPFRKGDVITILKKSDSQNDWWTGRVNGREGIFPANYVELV

T3: Rvs167 SH3 (RV167_YEAST), P39743
T3 chain: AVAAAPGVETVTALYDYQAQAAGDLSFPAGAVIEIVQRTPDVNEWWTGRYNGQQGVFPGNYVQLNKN

T4: Myo5 SH3 (MYO5_YEAST), Q04439
T4 chain: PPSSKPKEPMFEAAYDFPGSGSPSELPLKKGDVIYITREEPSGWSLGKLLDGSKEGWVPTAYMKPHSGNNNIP

T5: Boi2 SH3 (BOI2_YEAST), P39969
T5 chain: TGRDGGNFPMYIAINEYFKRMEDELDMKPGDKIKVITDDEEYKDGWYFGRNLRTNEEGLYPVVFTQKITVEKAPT

T6: Boi1 SH3 (BOI1_YEAST), P38041
T6 chain: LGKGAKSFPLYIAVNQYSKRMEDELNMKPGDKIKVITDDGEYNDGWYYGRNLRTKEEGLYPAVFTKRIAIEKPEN


Key:
Experiment in all cases: SPOT array
[1] = target: T1, Yhr016c SH3 (YSC84_YEAST), P32793
[2] = target: Sho1 SH3 (SHO1_YEAST), P40073
Chain of Sho1 SH3 (SHO1_YEAST), P40073 (P40073 295-366): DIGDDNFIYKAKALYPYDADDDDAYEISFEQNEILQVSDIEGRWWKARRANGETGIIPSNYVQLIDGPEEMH

[3] = target: T2, Yfr024 SH3 (LSB3_YEAST), P43603
[4] = target: T3, Rvs167 SH3 (RV167_YEAST), P39743
[5] = target: T4, Myo5 SH3 (MYO5_YEAST), Q04439
[6] = target: T5, Boi2 SH3 (BOI2_YEAST), P39969
[7] = target: T6, Boi1 SH3 (BOI1_YEAST), P38041

| normalised SPOT signal, Boehringer light units (BLU); mean over the file's lines of this peptide [1] | normalised SPOT signal, Boehringer light units (BLU); mean over the file's lines of this peptide [2] | normalised SPOT signal, Boehringer light units (BLU); mean over the file's lines of this peptide [3] | normalised SPOT signal, Boehringer light units (BLU); mean over the file's lines of this peptide [4] | normalised SPOT signal, Boehringer light units (BLU); mean over the file's lines of this peptide [5] | normalised SPOT signal, Boehringer light units (BLU); mean over the file's lines of this peptide [6] | normalised SPOT signal, Boehringer light units (BLU); mean over the file's lines of this peptide [7] | Binder |
| --- | --- | --- | --- | --- | --- | --- | --- |
| 49.5 | 95 | 674 | 162 | 829 | 40.5 | 794 | SRVTRKRPREPKST [YBL111C 334-347] |
| 22.6 | 49.8 | 58.3 | 61.7 | 56.5 | 0 | 76.2 | SVNIKSWPLKPSNF [YNL226W 113-126] |
| 37.2 | 138 | 224 | 75.3 | 83 | 22.8 | 221 | SYMDKIYPDLPNDK [YFL047W 497-510] |
| 30.5 | 60.8 | 6.2 | 23.6 | 257 | 0 | 26.3 | STDHRGTPANPGRV [YER163C 43-56] |
| 12.6 | 111 | 0 | 2 | 127 | 29.4 | 124 | SVSEKTNPSSPSVS [YHR061C 244-257] |
| 46.1 | 28.2 | 48.2 | 17.6 | 91.1 | 24.7 | 114 | SVDPKNYPDAPLEG [YKL215C 38-51] |
| 28.8 | 50 | 212 | 100 | 740 | 32.8 | 3080 | SYISRKYPRAPAFI [YMR320W 69-82] |
| 10.4 | 1740 | 411 | 159 | 884 | 10.6 | 685 | SRSKRSKPLPPQLL [YJL095W 840-853] |
| 697 | 144 | 9730 | 7920 | 673 | 58.4 | 982 | SSKIRPTPRKPSRM [YER118C 4-17] |
| 23.3 | 94.1 | 99.8 | 104 | 69.2 | 0 | 208 | SRYLKDHPNLPTPE [YOR353C 203-216] |
| 61.2 | 3210 | 307 | 186 | 493 | 29.5 | 1060 | SQKKKALPKQPKAS [YDR028C 871-884] |
| 26.7 | 85 | 52.1 | 39.8 | 198 | 0.9 | 33 | STNAKKDPFPPPKD [YGR140W 417-430] |
| 39.2 | 30.7 | 1380 | 176 | 418 | 50.5 | 332 | SSVSKLKPSLPNKL [YPL242C 73-86] |
